Source: US20230355720A1, “PHARMACEUTICAL COMPOSITION FOR PREVENTING OR TREATING BONE DISEASES, COMPRISING TRIPLE AGONIST OR CONJUGATE THEREOF HAVING ACTIVITY WITH RESPECT TO ALL OF GLUCAGON, GLP-1 AND GLP RECEPTORS” (HANMI PHARM. CO., LTD., priority 2020, published 2023)
Bridge positions count the residues as written; N and C are the ends. Square brackets hold non-standard residues; d marks the D form. Ends that are not written are not given here. * marks the point of attachment. Acetyl(2-(4-imidazolyl)) = O=C(Cc1c[nH]cn1)*; Aib = CC(C)(N)C(=O)O

T1: human GIP receptor (human, UniProt P48546 22-466)
T1 sequence (looked up): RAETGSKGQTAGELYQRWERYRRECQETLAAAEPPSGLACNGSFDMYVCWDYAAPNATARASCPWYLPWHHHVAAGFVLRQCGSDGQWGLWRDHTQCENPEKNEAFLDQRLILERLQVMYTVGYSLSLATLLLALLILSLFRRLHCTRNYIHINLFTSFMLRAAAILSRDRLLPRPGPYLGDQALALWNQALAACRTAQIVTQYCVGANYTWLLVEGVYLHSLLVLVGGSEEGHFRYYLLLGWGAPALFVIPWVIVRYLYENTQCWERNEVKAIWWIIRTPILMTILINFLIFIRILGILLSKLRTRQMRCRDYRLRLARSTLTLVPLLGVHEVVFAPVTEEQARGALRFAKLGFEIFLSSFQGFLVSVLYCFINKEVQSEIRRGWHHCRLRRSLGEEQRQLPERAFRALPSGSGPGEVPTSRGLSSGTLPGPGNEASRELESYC


Columns and labels:
MC3T3-E1 osteoblasts [1] = assay: ColA1 protein in medium of MC3T3-E1 osteoblasts (collagen assay kit); type: cell-based; conditions: co-treatment with GIP inhibitor (10 μM or 100 μM), 7 days (FIG. 4)
Experimental: MC3T3-E1 osteoblasts were dispensed into 12-well plates at 100,000 cells/well and incubated for 24 hours using a medium containing 10% fetal bovine serum. […] The long-acting GIP used in the present invention was prepared by the same method as in the long-acting conjugate of the triple agonist illustrated in Example 2, wherein the long-acting GIP is in a form in which immunoglobulin Fc was linked to GIP analog via PEG, and the GIP inhibitor is GIP 3-30, in which the N-terminus was absent in native GIP.
After 7 days, the incubated medium was collected, and ColA1 in the medium was quantified using a collagen assay kit (Biocolor) according to the manufacturer's instructions.
Statistical analysis was performed by one-way ANOVA to compare between the control group and the test groups.

MC3T3-E1 osteoblasts [2] = assay: Cell viability of MC3T3-E1 osteoblasts under fetal bovine serum deficiency; type: cell-based; conditions: co-treatment with conjugate (2 μM) and GIP inhibitor 0.31, 1.25, 5, 20 μM; dose-dependent manner (FIG. 5)
Experimental: MC3T3-E1 osteoblasts were dispensed into 96-well plates at 10,000 cells/well and incubated for 24 hours using a medium containing 10% fetal bovine serum. The medium in a normal group was replaced with a medium containing 10% bovine fetal serum, and the medium in each of the test groups was replaced with a medium containing no bovine fetal serum. […] The medium in each of the normal group and test groups was replaced, and after 48 hours, the cells were further incubated. Thereafter, the cell viability was analyzed using a collagen assay kit (Biocolor) according to the manufacturers instructions. The GIP inhibitor is GIP 3-30, in which the N-terminus region was absent in native GIP.

human GLP-1 receptor = human GLP-1 receptor (human, UniProt P43220 24-463); assay: cell-based or functional assay
human GCG receptor = human GCG receptor (human, UniProt P47871 26-477); assay: cell-based or functional assay
human GIP receptor = biological target: T1, human GIP receptor; assay: cell-based or functional assay

Chain of human GCG receptor (P47871 26-477): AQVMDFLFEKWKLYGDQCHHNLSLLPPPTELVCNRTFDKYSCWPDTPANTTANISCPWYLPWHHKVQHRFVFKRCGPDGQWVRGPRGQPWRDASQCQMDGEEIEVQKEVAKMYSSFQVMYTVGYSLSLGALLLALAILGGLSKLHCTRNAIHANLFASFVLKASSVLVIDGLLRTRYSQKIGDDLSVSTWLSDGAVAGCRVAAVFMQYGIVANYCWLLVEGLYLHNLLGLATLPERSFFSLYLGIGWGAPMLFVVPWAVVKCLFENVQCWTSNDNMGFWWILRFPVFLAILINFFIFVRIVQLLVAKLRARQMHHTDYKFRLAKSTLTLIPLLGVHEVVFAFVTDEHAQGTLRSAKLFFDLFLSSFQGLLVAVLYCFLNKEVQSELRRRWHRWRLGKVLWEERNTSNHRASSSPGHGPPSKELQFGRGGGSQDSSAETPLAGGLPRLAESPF

Row | Molecule | effect of the long-acting conjugate of SEQ ID NO: 42 on the expression of ColA1 protein (MC3T3-E1 osteoblasts [1]) | cell viability increased by the long-acting conjugate of SEQ ID NO: 42 (MC3T3-E1 osteoblasts [2]) | In vitro activity (%) compared with native peptide, vs GLP-1 (human GLP-1 receptor) [%] | In vitro activity (%) compared with native peptide, vs Glucagon (human GCG receptor) [%] | In vitro activity (%) compared with native peptide, vs GIP (human GIP receptor) [%]
1 | GIP 3-30 (EGTFISDYSIAMDKIHQQDFVNWLLAQK; Gastric inhibitory polypeptide; UniProt P09681 54-81, looked up, fragment) [GIP inhibitor, GIP 3-30, in which the N-terminus was absent in native GIP, reference compound] | reduced | reduced |  |  | 
2 | H[Aib]QGTFTSDVSSYLDGQAQKEFIAWLVKGC (not fully specified) [triple agonist of SEQ ID NO: 2] |  |  | 5.9 | < 0.1 | < 0.1
3 | H[Aib]QGTFTSDYSKYLDEKRAQEFVCWLLAQKGKKNDWKHNIT (not fully specified) [triple agonist of SEQ ID NO: 28] |  |  | 17.2 | 1.6 | < 0.1
4 | H[Aib]QGTFTSDYSKYLDEKACKDFVQWLLDGGPSSGAPPPS (bridge 16-20; not fully specified) [triple agonist of SEQ ID NO: 32] |  |  | 151 | 1.7 | 8.8
5 | [Acetyl(2-(4-imidazolyl))]GQGTFTSDYSIQLDEIAVRDFVEWLKNGGPSSGAPPPSHG (not fully specified) [triple agonist of SEQ ID NO: 14] |  |  | 28 | < 0.1 | < 0.1
6 | [Acetyl(2-(4-imidazolyl))]GQGTFTSDLSIQYDSEHQRDFIEWLKDTGPSSGAPPPSHG (not fully specified) [triple agonist of SEQ ID NO: 19] |  |  | < 0.1 | < 0.1 | < 0.1
7 | Y[Aib]QGTFTSDYSKYLDECRAKEFVQWLLDHHPSSGQPPPS (bridge 16-20) [triple agonist of SEQ ID NO: 21] |  |  | 17.8 | 267 | 22.7
8 | H[Aib]QGTFTSDVSSYLLGQAAKQFIAWLVKGGGPSSGAPPPSC (not fully specified) [triple agonist of SEQ ID NO: 3] |  |  | 1.8 | < 0.1 | < 0.1
9 | H[Aib]QGTFTSDYSKYLDEKACKEFVQWLLAQ (bridge 16-20) [triple agonist of SEQ ID NO: 31] |  |  | 135 | 2.2 | 2.4
10 | [Acetyl(2-(4-imidazolyl))]GQGTFTSDLSIQYEEEAQQDFVEWLKDTGPSSGAPPPSHG (not fully specified) [triple agonist of SEQ ID NO: 20] |  |  | < 0.1 | < 0.1 | < 0.1
11 | [Acetyl(2-(4-imidazolyl))]GQGTFTSDLSKQMDSEAQQLFIEWLKNGGPSSGAPPPSHG (not fully specified) [triple agonist of SEQ ID NO: 16] |  |  | 2.1 | < 0.1 | < 0.1
12 | H[Aib]QGTFTSDCSKYLDSRAAQDFVQWLLDGGPSSGAPPPS (not fully specified) [triple agonist of SEQ ID NO: 26] |  |  | 64.5 | 0.2 | < 0.1
13 | H[Aib]QGTFTSDCSKYLDERAAQDFVQWLLDGGPSSGAPPPS (not fully specified) [triple agonist of SEQ ID NO: 25] |  |  | 82.6 | 0.1 | < 0.1
14 | [Acetyl(2-(4-imidazolyl))]GQGTFTSDLSKQMDSERAREFIEWLKNTGPSSGAPPPSHG (not fully specified) [triple agonist of SEQ ID NO: 18] |  |  | < 0.1 | < 0.1 | < 0.1
15 | H[Aib]QGTFTSDYSIAMDEIHQKDFVNWLLAQKC (bridge 16-20; not fully specified) [triple agonist of SEQ ID NO: 33] |  |  | 24.5 | < 0.1 | 10.4
16 | Y[Aib]QGTFTSDYSKYLDECRAKEFVQWLKNGGPSSGAPPPS (bridge 16-20) [triple agonist of SEQ ID NO: 24] |  |  | 41.2 | 9.3 | < 0.1
17 | H[Aib]QGTFTSDYSKYLDERACQDFVQWLLDQGGPSSGAPPPS (not fully specified) [triple agonist of SEQ ID NO: 27] |  |  | 83.1 | 0.8 | 0.9
18 | Y[Aib]QGTFTSDYSKYLDECRAKEFVQWLLAQKGKKNDWKHNIT (bridge 16-20; not fully specified) [triple agonist of SEQ ID NO: 23] |  |  | 4.01 | 9.3 | < 0.1
19 | H[Aib]QGTFTSDYSKYLDEKAAKEFVQWLLNTC (bridge 16-20; not fully specified) [triple agonist of SEQ ID NO: 29] |  |  | 38.5 | 6 | < 0.1
20 | [Acetyl(2-(4-imidazolyl))]GQGTFTSDLSKQMDEERAREFIEWLLAQKPSSGAPPPSHG (not fully specified) [triple agonist of SEQ ID NO: 17] |  |  | 0.2 | < 0.1 | < 0.1
21 | Y[Aib]QGTFTSDYSKCLDEKRAKEFVQWLLDHHPSSGQPPPS (bridge 16-20) [triple agonist of SEQ ID NO: 22] |  |  | 20.1 | 140 | 59.7
